PMC3799832

Target: full-length talin1 purified from turkey gizzard (turkey)
Assay: electron microscopy single-particle 3D reconstruction

stoichiometry N: 2
Substance: full-length talin1 purified from turkey gizzard
